Measurements: the supplement of paper PMC9233669
Fewer inactive variants are shown than the library holds.

Tests used:
[1] = system: biotinyl-Phe-oxazolone; experiment: self-aminoacylation, catalytic enhancement (BFO) (fold over background); higher = more active; k-Seq, kA / k0A0; sequences stand for … in GGGAAUGGAUCCACAUCUACGAAUUC…UUCACUGCAGACUUGACGAAGCUG
Procedure, shortened: (§1)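 Mutagenized RNA pools with a 21-nt variable region (0.43 μM) were reacted with each biotinyl-aminoacyl-oxazolone at 2–1250 μM for 90 minutes at room temperature, in 50 μL HEPES/NaCl/KCl/MgCl2/CaCl2 buffer containing 5% acetonitrile at pH 6.9–7.0. RNA captured on streptavidin was quantified by triplicate qPCR and by Illumina sequencing. The fraction reacted for each sequence was fit to a pseudo-first-order model with bootstrapping, and catalytic enhancement is the median kA divided by the uncatalyzed rate, taken as the low-activity peak of a bimodal Gaussian fit.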

[2] = system: biotinyl-Ile-oxazolone; experiment: self-aminoacylation, catalytic enhancement (BIO) (fold over background); higher = more active; k-Seq, kA / k0A0; sequences stand for … in GGGAAUGGAUCCACAUCUACGAAUUC…UUCACUGCAGACUUGACGAAGCUG
Procedure, shortened: as §1

[3] = system: biotinyl-Met-oxazolone; experiment: self-aminoacylation, catalytic enhancement (BMO) (fold over background); higher = more active; k-Seq, kA / k0A0; sequences stand for … in GGGAAUGGAUCCACAUCUACGAAUUC…UUCACUGCAGACUUGACGAAGCUG
Procedure, shortened: as §1

[4] = system: biotinyl-Val-oxazolone; experiment: self-aminoacylation, catalytic enhancement (BVO) (fold over background); higher = more active; k-Seq, kA / k0A0; sequences stand for … in GGGAAUGGAUCCACAUCUACGAAUUC…UUCACUGCAGACUUGACGAAGCUG
Procedure, shortened: as §1

[5] = system: biotinyl-Leu-oxazolone; experiment: self-aminoacylation, catalytic enhancement (BLO) (fold over background); higher = more active; k-Seq, kA / k0A0; sequences stand for … in GGGAAUGGAUCCACAUCUACGAAUUC…UUCACUGCAGACUUGACGAAGCUG
Procedure, shortened: as §1

[6] = system: biotinyl-Trp-oxazolone; experiment: self-aminoacylation, catalytic enhancement (BWO) (fold over background); higher = more active; k-Seq, kA / k0A0; sequences stand for … in GGGAAUGGAUCCACAUCUACGAAUUC…UUCACUGCAGACUUGACGAAGCUG
Procedure, shortened: as §1

Sequence | self-aminoacylation [1] | self-aminoacylation [2] | self-aminoacylation [3] | self-aminoacylation [4] | self-aminoacylation [5] | self-aminoacylation [6]
AUUCACCUAGGUCAUCGUCUG [Fam2.2 aminoacylation ribozyme variant] | 0.312 | 0.663 | 0.67 | 0.718 | 0.717 | 0.376
AUUCACCUAGGUCAUCGUGUC [Fam2.2 aminoacylation ribozyme variant] | 0.307 | 0.461 | 0.403 | 0.474 | 0.498 | 0.514
AUUCACCUAGGUCAUCGUUUG [Fam2.2 aminoacylation ribozyme variant] | 0.512 | 0.592 | 0.542 | 0.771 | 0.556 | 0.31
AUUCACCUAGGUCAUCUGGGG [Fam2.2 aminoacylation ribozyme variant] | 2.49 | 1.63 | 1.83 | 1.5 | 1.9 | 1.54
AUUCACCUAGGUCAUCUGGUG [Fam2.2 aminoacylation ribozyme variant] | 16.5 | 1.93 | 2.71 | 1.9 | 3.41 | 2.62
AUUCACCUAGGUCAUGGGCUG [Fam2.2 aminoacylation ribozyme variant] | 0.402 | 1.63 | 1.54 | 1.33 | 1.66 | 1.17
AUUCACCUAGGUCAUGGGGAG [Fam2.2 aminoacylation ribozyme variant] | 0.544 | 1.03 | 0.889 | 0.979 | 0.853 | 1.56
AUUCACCUAGGUCAUUGCGUG [Fam2.2 aminoacylation ribozyme variant] | 123 | 8.82 | 15.7 | 7.69 | 21.7 | 15.8
AUUCACCUAGGUCAUUGGCUG [Fam2.2 aminoacylation ribozyme variant] | 3.54 | 1.21 | 1.32 | 1.4 | 1.33 | 0.756
AUUCACCUAGGUCAUUGGGUG [Fam2.2 aminoacylation ribozyme variant] | 20.1 | 2.31 | 3.26 | 2.29 | 4.03 | 3.18
AUUCACCUAGGUCAUUUGGUG [Fam2.2 aminoacylation ribozyme variant] | 21.2 | 2.13 | 3.31 | 2.03 | 4.82 | 3.43
AUUCACCUAGGUCCCCGGGUG [Fam2.2 aminoacylation ribozyme variant] | 58.4 | 5.12 | 8.22 | 4.54 | 9.96 | 7.84
AUUCACCUAGGUCCUCCGGUG [Fam2.2 aminoacylation ribozyme variant] | 63.3 | 6.38 | 10.3 | 5.33 | 11.5 | 9.26
AUUCACCUAGGUCCUCGGGUA [Fam2.2 aminoacylation ribozyme variant] | 1.16 | 2.44 | 2.26 | 2.39 | 1.71 | 3
AUUCACCUAGGUCCUCGGUUG [Fam2.2 aminoacylation ribozyme variant] | 4.8 | 1.13 | 1.39 | 1.31 | 1.51 | 0.815
AUUCACCUAGGUCGCCGGGUG [Fam2.2 aminoacylation ribozyme variant] | 18.5 | 3.4 | 3.99 | 3.25 | 3.8 | 3.38
AUUCACCUAGGUCGUCGGGAG [Fam2.2 aminoacylation ribozyme variant] | 0.385 | 0.982 | 0.924 | 1.36 | 1.27 | 0.943
AUUCACCUAGGUCGUCGGGCG [Fam2.2 aminoacylation ribozyme variant] | 15.2 | 3.39 | 2.56 | 3.2 | 4.5 | 2.76
AUUCACCUAGGUCGUCGGGGG [Fam2.2 aminoacylation ribozyme variant] | 8.18 | 3.11 | 3.07 | 2.9 | 3.38 | 3.53
AUUCACCUAGGUCGUCGGGUA [Fam2.2 aminoacylation ribozyme variant] | 6.61 | 1.85 | 2.24 | 1.95 | 2.71 | 1.95
AUUCACCUAGGUCGUGGGGUG [Fam2.2 aminoacylation ribozyme variant] | 5.74 | 1.54 | 1.5 | 1.61 | 1.97 | 1.66
AUUCACCUAGGUCGUUGGGUG [Fam2.2 aminoacylation ribozyme variant] | 3.95 | 1.35 | 1.42 | 1.2 | 1.52 | 1.23
AUUCACCUAGGUCUUCCGGUG [Fam2.2 aminoacylation ribozyme variant] | 99.3 | 7.6 | 11.2 | 7 | 17.2 | 12.2
AUUCACCUAGGUCUUCGAGUG [Fam2.2 aminoacylation ribozyme variant] | 9.5 | 2.03 | 2.99 | 2.13 | 3.65 | 3.26
AUUCACCUAGGUCUUCGGGCG [Fam2.2 aminoacylation ribozyme variant] | 13.6 | 2.8 | 3.94 | 2.83 | 5.23 | 2.99
AUUCACCUAGGUCUUGGGGUG [Fam2.2 aminoacylation ribozyme variant] | 77.3 | 5.73 | 11.2 | 6.44 | 13.8 | 9.73

Sequence | self-aminoacylation [1] | self-aminoacylation [2] | self-aminoacylation [3] | self-aminoacylation [4] | self-aminoacylation [5] | self-aminoacylation [6]
AUUCACCUAGGUGAUCGCGUG [Fam2.2 aminoacylation ribozyme variant] | 14.6 | 2.69 | 2.86 | 2.31 | 4.17 | 2.83
AUUCACCUAGGUGAUCGGGCG [Fam2.2 aminoacylation ribozyme variant] | 12.5 | 3.28 | 3.9 | 3.62 | 4.11 | 3.84
AUUCACCUAGGUGAUGGGGUG [Fam2.2 aminoacylation ribozyme variant] | 14.4 | 2.02 | 2.65 | 2.21 | 2.81 | 2.65
AUUCACCUAGGUGCUCGGGUG [Fam2.2 aminoacylation ribozyme variant] | 31.1 | 3.07 | 3.67 | 3.1 | 4.46 | 3.64
AUUCACCUAGGUGUUCGGGUG [Fam2.2 aminoacylation ribozyme variant] | 21.7 | 2.79 | 3.31 | 2.93 | 4.31 | 3.74
AUUCACCUAGGUUACCGGGUG [Fam2.2 aminoacylation ribozyme variant] | 18.5 | 2.49 | 3.68 | 2.63 | 3.98 | 3.78
AUUCACCUAGGUUAUCGGGAG [Fam2.2 aminoacylation ribozyme variant] | 0.308 | 1.21 | 1.17 | 1.55 | 1.17 | 0.528
AUUCACCUAGGUUAUCGGGUC [Fam2.2 aminoacylation ribozyme variant] | 1.59 | 1.2 | 1.13 | 1.08 | 1.11 | 0.944
AUUCACCUAGGUUAUCGGGUG [Fam2.2 aminoacylation ribozyme variant] | 28 | 2.89 | 4.34 | 3.15 | 5.2 | 4.33
AUUCACCUAGGUUAUCUGGUG [Fam2.2 aminoacylation ribozyme variant] | 35.2 | 3.02 | 5.29 | 2.95 | 5.96 | 4.49
AUUCACCUAGGUUAUGGGGUG [Fam2.2 aminoacylation ribozyme variant] | 78.4 | 5.44 | 8.25 | 4.76 | 11.2 | 8.28
AUUCACCUAGGUUUUCGGGUG [Fam2.2 aminoacylation ribozyme variant] | 34.3 | 3.03 | 4.67 | 3.5 | 5.21 | 4.06
AUUCACCUAGUUAAUCGGGUG [Fam2.2 aminoacylation ribozyme variant] | 20 | 2.01 | 3.08 | 2.04 | 3.98 | 3.53
AUUCACCUAGUUCAACGGGUG [Fam2.2 aminoacylation ribozyme variant] | 17.1 | 1.65 | 2.42 | 1.73 | 2.88 | 2.46
AUUCACCUAGUUCAUCGGAUG [Fam2.2 aminoacylation ribozyme variant] | 0.611 | 0.963 | 1.03 | 0.951 | 0.819 | 0.827
AUUCACCUAGUUCAUCGGUUG [Fam2.2 aminoacylation ribozyme variant] | 0.483 | 1.09 | 0.932 | 1.09 | 1.11 | 0.661
AUUCACCUAGUUCAUCUGGUG [Fam2.2 aminoacylation ribozyme variant] | 10.4 | 1.56 | 1.88 | 1.5 | 2.44 | 2.4
AUUCACCUAGUUCCUCGGGUG [Fam2.2 aminoacylation ribozyme variant] | 19.7 | 2.06 | 2.42 | 2.06 | 3.31 | 2.63
AUUCACCUAGUUCGUCGGGUG [Fam2.2 aminoacylation ribozyme variant] | 3.17 | 1.14 | 1.26 | 1.23 | 1.32 | 1.15
AUUCACCUAGUUUAUCGGGUG [Fam2.2 aminoacylation ribozyme variant] | 21.2 | 2.39 | 3.75 | 2.61 | 3.48 | 4.61
AUUCACCUAUCUCAUCGGGUG [Fam2.2 aminoacylation ribozyme variant] | 19.4 | 2.18 | 3.1 | 2.09 | 4.13 | 3.46
AUUCACCUAUGUAAUCGGGUG [Fam2.2 aminoacylation ribozyme variant] | 36.4 | 3.11 | 5.17 | 2.91 | 7.44 | 5.74
AUUCACCUAUGUCAUAGGGUG [Fam2.2 aminoacylation ribozyme variant] | 1.08 | 1.36 | 1.46 | 1.15 | 1.75 | 0.856
AUUCACCUAUGUCAUCAGGUG [Fam2.2 aminoacylation ribozyme variant] | 8.58 | 1.72 | 2.39 | 1.64 | 2.75 | 2.33
AUUCACCUAUGUCAUCGGUUG [Fam2.2 aminoacylation ribozyme variant] | 0.455 | 0.902 | 0.874 | 0.872 | 0.919 | 0.892
